Source: US20120230981A1 (RESEARCH CORPORATION TECHNOLOGIES, published 2012)

Legend:
[1] = target: T1, soluble, recombinant hFcRn (human, UniProt P55899 24-297; P61769 21-119, limits assumed, biotinylated in the yeast flow cytometry assays (biotin-soluble FcRn); site not stated); assay: competition, flow cytometry: IgG1 inhibits binding of soluble FcRn to yeast-displayed m01s at pH 6.0
T1 construct: also called rFcRn; soluble FcRn

[2] = target: T1, soluble, recombinant hFcRn; assay: Biacore (SPR), HiswtCH2 at 75-1200 nM
Method: For reference, the WT CH2 sequence (without the HIS tag) is shown in SEQ ID NO: 1. “HiswtCH2” of FIG. 1 is the WT CH2 sequence with a His tag, e.g., a group of histidine residues in a row, e.g., 6 histidine residues. […] HiswtCH2 was tested at 75, 150, 300, 600, 1200 nM. The A curves (1A, 2A, 3A, 4A, 5A, and 6A) are binding curves; the B curves (1B, 2B, 3B, 4B, 5B, and 6B) are fitted curves.

Row | IC50 [1] [nM] | Kd [2] [nM] | koff [2] [s⁻¹] | kon [2] [M⁻¹ s⁻¹] | Molecule
1 | 629 |  |  |  | IgG1 (antibody)
2 |  | 90.8 | 0.00184 | 20300 | HiswtCH2 (wild type CH2 domain of human IgG1 with a His tag) (other, also called wild type (WT) CH2; not shown: His tag, 'e.g., 6 histidine residues') APELLGGPSVFLFPPKPKDTLMISRTPEVTCVVVDVSHEDPEVKFNWYVDGVEVHNAKTKPREEQYNSTYRVVSVLTVLHQDWLNGKEYKCKVSNKALPAPIEKTISKAKGQ
